# In patent US20240261333A1, “NOVEL TARGETS FOR ENHANCING ANTI-TUMOR IMMUNITY” (THE BROAD INSTITUTE, INC., priority 2021, published 2024):
# What was measured:
# [1] = target: ABCF1 (UniProt Q8NE71); experiment: co-IP, anti-FLAG, lysate of C-FLAG B3GNT2 cells, mass spectrometry
# [2] = target: ARPC2 (UniProt O15144); experiment: as above
# [3] = target: CALM2 (UniProt P0DP24); experiment: as above
# [4] = target: CNP (UniProt P09543); experiment: as above
# [5] = target: CSPG4 (UniProt Q6UVK1); experiment: as above
# [6] = target: DPM1 (UniProt O60762); experiment: as above
# [7] = target: GNAS (UniProt Q5JWF2); experiment: as above
# Chain of GNAS (Q5JWF2 whole entry): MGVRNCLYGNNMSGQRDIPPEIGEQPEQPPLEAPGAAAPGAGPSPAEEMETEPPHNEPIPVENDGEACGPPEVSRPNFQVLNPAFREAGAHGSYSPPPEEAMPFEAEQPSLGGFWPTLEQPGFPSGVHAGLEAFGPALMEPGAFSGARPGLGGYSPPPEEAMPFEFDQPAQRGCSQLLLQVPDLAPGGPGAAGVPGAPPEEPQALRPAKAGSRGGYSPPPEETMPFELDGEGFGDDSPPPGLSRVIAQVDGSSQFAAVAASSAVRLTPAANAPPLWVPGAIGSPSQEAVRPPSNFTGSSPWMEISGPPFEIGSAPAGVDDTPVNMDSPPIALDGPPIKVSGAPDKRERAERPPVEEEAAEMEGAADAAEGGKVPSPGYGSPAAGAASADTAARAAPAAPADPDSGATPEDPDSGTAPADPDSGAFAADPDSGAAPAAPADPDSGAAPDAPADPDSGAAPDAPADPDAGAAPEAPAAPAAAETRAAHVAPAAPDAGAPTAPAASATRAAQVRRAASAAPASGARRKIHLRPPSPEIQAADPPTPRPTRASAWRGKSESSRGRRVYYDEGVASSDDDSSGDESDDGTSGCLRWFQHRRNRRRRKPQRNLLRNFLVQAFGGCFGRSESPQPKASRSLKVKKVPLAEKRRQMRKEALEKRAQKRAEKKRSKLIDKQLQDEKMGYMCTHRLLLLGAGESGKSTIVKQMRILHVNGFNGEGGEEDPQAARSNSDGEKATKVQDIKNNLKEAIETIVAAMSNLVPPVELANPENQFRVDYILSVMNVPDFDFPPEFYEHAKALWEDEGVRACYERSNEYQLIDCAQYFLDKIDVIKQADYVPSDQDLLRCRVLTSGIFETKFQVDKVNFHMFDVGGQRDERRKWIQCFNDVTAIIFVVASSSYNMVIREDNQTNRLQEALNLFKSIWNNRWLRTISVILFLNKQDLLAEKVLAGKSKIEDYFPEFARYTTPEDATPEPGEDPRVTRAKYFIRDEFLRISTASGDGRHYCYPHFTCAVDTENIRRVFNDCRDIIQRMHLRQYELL
# [8] = target: HSPA5 (UniProt P11021); experiment: as above
# [9] = target: HSPH1 (UniProt Q92598); experiment: as above
# [10] = target: LAMB1 (UniProt P07942); experiment: as above
# [11] = target: LOXL4 (UniProt Q96JB6); experiment: as above
# [12] = target: LRP2 (UniProt P98164); experiment: as above
# [13] = target: LRPPRC (UniProt P42704); experiment: as above
# [14] = target: MAP1B (UniProt P46821); experiment: as above
# [15] = target: MYO1D (UniProt O94832); experiment: as above
# [16] = target: NCL (UniProt P19338); experiment: as above
# [17] = target: OS9 (UniProt Q13438); experiment: as above
# [18] = target: PGK1 (UniProt P00558); experiment: as above
# [19] = target: PPIB (UniProt P23284); experiment: as above
# [20] = target: RAB1B (UniProt Q9H0U4); experiment: as above
# [21] = target: RNASE1 (UniProt P07998); experiment: as above
# Chain of RNASE1 (P07998 29-156 limits assumed): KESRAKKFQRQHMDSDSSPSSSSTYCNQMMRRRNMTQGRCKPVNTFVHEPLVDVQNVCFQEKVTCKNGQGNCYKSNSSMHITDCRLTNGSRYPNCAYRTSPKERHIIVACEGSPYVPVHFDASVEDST
# [22] = target: RPL18A (UniProt Q02543); experiment: as above
# [23] = target: RPL29 (UniProt P47914); experiment: as above
# [24] = target: SERPINE2 (UniProt P07093); experiment: as above
# [25] = target: SLC25A1 (UniProt P53007); experiment: as above
# [26] = target: TM9SF3 (UniProt Q9HD45); experiment: as above
# [27] = target: TNC (UniProt P24821); experiment: as above
# Chain of TNC (P24821 23-2201 limits assumed): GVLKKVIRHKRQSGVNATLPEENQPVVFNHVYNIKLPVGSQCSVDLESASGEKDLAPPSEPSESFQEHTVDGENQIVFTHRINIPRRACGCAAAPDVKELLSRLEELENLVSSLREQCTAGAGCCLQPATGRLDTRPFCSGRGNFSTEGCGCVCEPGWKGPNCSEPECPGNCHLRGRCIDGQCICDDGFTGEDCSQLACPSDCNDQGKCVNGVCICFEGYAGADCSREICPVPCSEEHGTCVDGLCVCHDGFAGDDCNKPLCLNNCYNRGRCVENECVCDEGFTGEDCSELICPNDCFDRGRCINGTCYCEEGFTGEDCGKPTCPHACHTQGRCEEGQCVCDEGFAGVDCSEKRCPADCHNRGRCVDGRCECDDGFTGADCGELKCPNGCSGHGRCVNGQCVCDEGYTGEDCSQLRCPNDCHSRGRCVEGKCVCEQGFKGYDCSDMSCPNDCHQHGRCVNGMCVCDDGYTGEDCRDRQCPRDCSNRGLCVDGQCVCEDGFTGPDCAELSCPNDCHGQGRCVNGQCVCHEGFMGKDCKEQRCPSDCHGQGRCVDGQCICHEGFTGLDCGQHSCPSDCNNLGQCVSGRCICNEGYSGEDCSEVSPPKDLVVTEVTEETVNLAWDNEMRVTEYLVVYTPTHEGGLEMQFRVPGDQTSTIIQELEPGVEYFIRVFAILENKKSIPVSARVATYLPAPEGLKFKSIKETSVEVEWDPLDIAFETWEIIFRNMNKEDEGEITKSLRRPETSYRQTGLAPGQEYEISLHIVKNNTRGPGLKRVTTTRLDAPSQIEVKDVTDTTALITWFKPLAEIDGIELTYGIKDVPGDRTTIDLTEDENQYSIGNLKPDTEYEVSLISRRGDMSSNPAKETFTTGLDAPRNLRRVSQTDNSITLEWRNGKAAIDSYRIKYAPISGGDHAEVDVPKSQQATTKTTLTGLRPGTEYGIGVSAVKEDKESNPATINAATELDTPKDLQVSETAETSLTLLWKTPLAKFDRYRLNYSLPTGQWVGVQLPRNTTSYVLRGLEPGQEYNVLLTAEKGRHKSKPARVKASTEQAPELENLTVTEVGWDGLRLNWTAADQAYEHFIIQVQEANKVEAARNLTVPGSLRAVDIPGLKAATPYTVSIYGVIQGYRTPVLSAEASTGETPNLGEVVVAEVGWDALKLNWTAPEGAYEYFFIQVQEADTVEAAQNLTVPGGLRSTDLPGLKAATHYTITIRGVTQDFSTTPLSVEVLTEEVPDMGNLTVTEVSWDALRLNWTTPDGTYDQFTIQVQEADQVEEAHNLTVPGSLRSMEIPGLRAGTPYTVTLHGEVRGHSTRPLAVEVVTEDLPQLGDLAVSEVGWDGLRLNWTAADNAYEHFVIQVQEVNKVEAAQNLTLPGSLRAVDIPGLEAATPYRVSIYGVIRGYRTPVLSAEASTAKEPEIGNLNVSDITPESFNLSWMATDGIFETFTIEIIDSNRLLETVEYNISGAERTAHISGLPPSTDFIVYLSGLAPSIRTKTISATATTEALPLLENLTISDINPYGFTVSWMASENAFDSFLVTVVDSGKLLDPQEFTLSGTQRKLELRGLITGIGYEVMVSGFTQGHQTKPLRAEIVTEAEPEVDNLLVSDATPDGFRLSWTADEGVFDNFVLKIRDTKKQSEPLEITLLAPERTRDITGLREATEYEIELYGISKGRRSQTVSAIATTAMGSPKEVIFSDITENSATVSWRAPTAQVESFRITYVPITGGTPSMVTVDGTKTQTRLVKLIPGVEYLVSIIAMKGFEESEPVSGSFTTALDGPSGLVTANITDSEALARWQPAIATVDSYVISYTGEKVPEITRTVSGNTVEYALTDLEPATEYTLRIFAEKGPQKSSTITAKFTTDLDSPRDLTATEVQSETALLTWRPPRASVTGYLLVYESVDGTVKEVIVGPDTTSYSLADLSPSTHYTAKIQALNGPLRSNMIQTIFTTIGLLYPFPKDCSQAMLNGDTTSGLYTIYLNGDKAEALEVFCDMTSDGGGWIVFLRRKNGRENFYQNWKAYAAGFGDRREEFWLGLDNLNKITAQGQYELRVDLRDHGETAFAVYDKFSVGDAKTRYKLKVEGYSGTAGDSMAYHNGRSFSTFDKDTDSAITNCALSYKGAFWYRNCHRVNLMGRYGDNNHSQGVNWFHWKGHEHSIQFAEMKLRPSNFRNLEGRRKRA
# [28] = target: TRIM28 (UniProt Q13263); experiment: as above
# [29] = target: CASP14 (human) (UniProt P31944); experiment: co-IP/MS, IgG control IP of N-FLAG B3GNT2 cell lysate
# Chain of CASP14 (human) (P31944 whole entry): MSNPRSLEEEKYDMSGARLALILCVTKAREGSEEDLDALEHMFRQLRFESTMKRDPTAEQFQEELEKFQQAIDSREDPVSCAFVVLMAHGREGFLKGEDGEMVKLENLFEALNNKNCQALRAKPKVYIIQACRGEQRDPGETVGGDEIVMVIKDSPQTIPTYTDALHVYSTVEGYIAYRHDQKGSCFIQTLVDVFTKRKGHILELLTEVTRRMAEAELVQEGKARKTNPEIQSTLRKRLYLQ
# [30] = target: ERLIN1 (human) (UniProt O75477); experiment: as above
# Chain of ERLIN1 (human) (O75477 whole entry): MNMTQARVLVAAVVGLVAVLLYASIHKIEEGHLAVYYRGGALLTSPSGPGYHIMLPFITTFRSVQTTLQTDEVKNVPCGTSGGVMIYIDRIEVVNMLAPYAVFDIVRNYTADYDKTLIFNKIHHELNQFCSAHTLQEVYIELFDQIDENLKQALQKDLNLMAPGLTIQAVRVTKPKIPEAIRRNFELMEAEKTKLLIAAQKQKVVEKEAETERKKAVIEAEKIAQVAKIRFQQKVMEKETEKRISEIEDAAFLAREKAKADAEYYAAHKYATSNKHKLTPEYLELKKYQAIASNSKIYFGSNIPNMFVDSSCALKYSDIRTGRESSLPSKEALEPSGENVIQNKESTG
# [31] = target: ERLIN2 (human) (UniProt O94905); experiment: as above
# [32] = target: FAM3C (human) (UniProt Q92520); experiment: as above
# [33] = target: LRP1 (human) (UniProt Q07954); experiment: as above
# [34] = target: PRDX2 (human) (UniProt P32119); experiment: as above
# Chain of PRDX2 (human) (P32119 2-198 limits assumed): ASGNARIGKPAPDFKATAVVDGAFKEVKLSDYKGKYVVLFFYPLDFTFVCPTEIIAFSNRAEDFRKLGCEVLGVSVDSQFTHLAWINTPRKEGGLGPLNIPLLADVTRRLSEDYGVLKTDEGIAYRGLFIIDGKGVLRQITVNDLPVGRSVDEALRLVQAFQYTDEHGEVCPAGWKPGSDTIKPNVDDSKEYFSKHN
# [35] = target: RCN2 (human) (UniProt Q14257); experiment: as above
# [36] = target: RPL14 (human) (UniProt P50914); experiment: as above
# [37] = target: RPL24 (human) (UniProt P83731); experiment: as above
# [38] = target: RPS12 (human) (UniProt P25398); experiment: as above
# [39] = target: TUBB (human) (UniProt P07437); experiment: as above
# Chain of TUBB (human) (P07437 whole entry): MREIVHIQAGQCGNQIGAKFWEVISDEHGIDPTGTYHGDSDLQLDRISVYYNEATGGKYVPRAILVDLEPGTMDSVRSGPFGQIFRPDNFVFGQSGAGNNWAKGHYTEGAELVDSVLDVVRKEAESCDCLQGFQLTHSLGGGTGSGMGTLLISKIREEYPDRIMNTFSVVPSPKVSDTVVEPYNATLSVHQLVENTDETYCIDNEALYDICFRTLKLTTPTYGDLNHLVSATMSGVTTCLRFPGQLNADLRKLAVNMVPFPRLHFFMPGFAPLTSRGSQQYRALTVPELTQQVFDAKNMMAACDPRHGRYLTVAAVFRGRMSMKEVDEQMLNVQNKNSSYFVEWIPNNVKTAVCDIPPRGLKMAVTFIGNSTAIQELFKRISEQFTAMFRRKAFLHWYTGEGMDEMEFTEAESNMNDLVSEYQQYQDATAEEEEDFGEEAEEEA
# Chain of CNP (P09543 21-418 limits assumed): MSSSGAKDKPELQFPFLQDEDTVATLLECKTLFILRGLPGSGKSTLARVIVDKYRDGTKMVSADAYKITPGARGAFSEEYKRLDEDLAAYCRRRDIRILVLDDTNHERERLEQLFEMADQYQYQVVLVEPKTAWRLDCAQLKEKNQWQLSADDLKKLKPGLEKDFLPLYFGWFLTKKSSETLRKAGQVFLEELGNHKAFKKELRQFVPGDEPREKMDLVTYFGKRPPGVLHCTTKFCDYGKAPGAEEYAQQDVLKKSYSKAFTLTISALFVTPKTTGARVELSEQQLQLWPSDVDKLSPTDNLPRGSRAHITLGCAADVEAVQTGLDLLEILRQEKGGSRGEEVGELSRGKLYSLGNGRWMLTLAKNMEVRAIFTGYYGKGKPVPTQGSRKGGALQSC
substance,measurement,setting,value
C-terminal FLAG tagged B3GNT2 (from UniProt Q9NY97 1-397) (enzyme),co-IP/MS count,[1],2
same,co-IP/MS count,[2],2
same,co-IP/MS count,[3],2
same,co-IP/MS count,[4],7
same,co-IP/MS count,[5],12
same,co-IP/MS count,[6],8
same,co-IP/MS count,[7],2
same,co-IP/MS count,[8],130
same,co-IP/MS count,[9],7
same,co-IP/MS count,[10],2
same,co-IP/MS count,[11],8
same,co-IP/MS count,[12],2
same,co-IP/MS count,[13],9
same,co-IP/MS count,[14],2
same,co-IP/MS count,[15],2
same,co-IP/MS count,[16],11
same,co-IP/MS count,[17],9
same,co-IP/MS count,[18],2
same,co-IP/MS count,[19],2
same,co-IP/MS count,[20],2
same,co-IP/MS count,[21],2
same,co-IP/MS count,[22],12
same,co-IP/MS count,[23],6
same,co-IP/MS count,[24],11
same,co-IP/MS count,[25],8
same,co-IP/MS count,[26],11
same,co-IP/MS count,[27],10
same,co-IP/MS count,[28],8
IgG control (Millipore Sigma 12-371) (antibody),co-IP mass spectrometry count,[29],3
same,co-IP mass spectrometry count,[30],0
same,co-IP mass spectrometry count,[31],0
same,co-IP mass spectrometry count,[32],0
same,co-IP mass spectrometry count,[33],0
same,co-IP mass spectrometry count,[34],5
same,co-IP mass spectrometry count,[35],0
same,co-IP mass spectrometry count,[36],7
same,co-IP mass spectrometry count,[37],4
same,co-IP mass spectrometry count,[38],0
same,co-IP mass spectrometry count,[39],10
